Assay results from US20230374078A1 (Janssen / Centocor, published 2023).

Target: C97ZA_SOSIP_L556P_T651F_M535N (HIV-1 clade C strain C97ZA)
Test: AlphaLISA on crude cell culture supernatant

B1: mAb PGT145 (antibody, V domains shown)
VH: QVQLVQSGAEVKKPGSSVKVSCKASGNSFSNHDVHWVRQATGQGLEWMGWMSHEGDKTGLAQKFQGRVTITRDSGASTVYMELRGLTADDTAIYYCLTGSKHRLRDYFLYNEYGPNYEEWGDYLATLDVWGHGTAVTVSS
VL: EVVITQSPLFLPVTPGEAASLSCKCSHSLQHSTGANYLAWYLQRPGQTPRLLIHLATHRASGVPDRFSGSGSGTDFTLKISRVESDDVGTYYCMQGLHSPWTFGQGTKVEIKR
trimer yield (PGT145 AlphaLISA signal), fold over the C97ZA_SOSIP backbone: 5 fold
